Assay results published in patent US20260275304A1, “METHODS AND COMPOSITIONS FOR GLYPHOSATE TOLERANCE IN PLANTS” (Monsanto Technology LLC, priority 2023, published 2026).
Like-named read-outs stand apart in the source and are kept apart here.

Assays:
[1] = system: S. cerevisiae strain sKR-024; assay: Growth of synthetic yeast strain sKR-024 expressing EPSPS variants with or without glyphosate; type: cell-based, Saccharomyces cerevisiae; settings: for growth in yeast minimal media without glyphosate: 0 mM glyphosate
Description: EPSPS variants were re-cloned into a clean p416-Core1p backbone and transformed into strain sKR-024 as described above. Colonies were then picked in triplicate into YSC-Ura-Leu and outgrown for 2 days at 30° C. Cultures were then diluted back to OD 0.001 in yeast minimal media (YMM) containing varying amounts of glyphosate as indicated. Growth rate measurements were then obtained using an Infinite M200 PRO microplate reader (Tecan, Männedorf, Switzerland) with incubation at 30° C. for 72-120 hours depending on growth rate of selected variants.
To determine if this system could further corroborate observations from previous literature, the well-studied EPSPS mutants T102I and P106S, and the combined double mutant TIPS (T102I-P106S) were generated and complemented into this yeast system. These mutations were reported to result in varying degrees of glyphosate resistance.
Having established low copy number and weak promoter expression of EPSPS variants, it was sought to recharacterize phenotypes under field conditions that are used in planta. […] It has been reported previously that under standard glyphosate foliar application, 0.3 mM or more of glyphosate (gly) can accumulate in a plant's root nodules and meristems. […] These trends support reported literature of mutants P106S and TIPS grown in various plant hosts. As a result, the present synthetic yeast model system closely resembles in planta observations and thus can be used to select for dual-trait EPSPS variants aimed at both enzymatic efficiency and glyphosate resistance.
Select mutants isolated from the final directed evolution campaign with the improved selection strategy were further evaluated in assorted glyphosate concentrations to determine growth characteristics. Mutants isolated from an EPSPS background were evaluated in media containing 0 mM and 0.25 mM glyphosate with the latter being the concentration at which wild-type EPSPS cannot grow after 100 hours. […] The non-glyphosate mono selection highlighted in blue represents mutations resulting from 5 subcultures in 0 mM glyphosate. The low glyphosate dual selection highlighted in light green represents mutants resulting from an additional subculture into 0.5 mM glyphosate. Lastly, the high glyphosate dual selection highlighted in dark green represent mutations isolated after subcultures in increasing levels of glyphosate, up to 10 mM.

maize EPSPS = assay: In vitro characterization of EPSPS mutants (EnzChek phosphate assay, Michaelis-Menten kinetics, glyphosate Ki); type: biochemical, Zea mays; settings: for Km: apparent Km, mean±S.E.; for Ki: inhibitory constant for glyphosate, no unit in table (around 800 μM)
Description: Activity was determined by quantifying release of Pi, coupled to a reaction with MESG, catalyzed by purine-nucleoside phosphorylase using the EnzChek Phosphate Assay Kit from Invitrogen, first published in 1992. 95 μL of master mix was added to each well and 5 μL of the varied substrate dilutions were multi-channeled into the plate to start the reaction simultaneously for all conditions. Absorbance measurements at 360 nm were taken every 10 seconds for 3 minutes to capture the initial reaction rate of each condition. Varying levels of substrate were added to generate the resulting reaction rate curves. Each condition was performed in triplicate. Ki was determined as previously described (Lu, et al., Protein Engineering, Design and Selection 30:395-399 (2017)). Data was fit to the Michaelis-Menten kinetics equation and were also validated through GraphPad Prism's built-in function for each variant.
For protein expression of EPSPS and its variants, E. coli BL21 (DE3) was used as the expression host. Electrocompetent cells were transformed with the corresponding constructed plasmids, pET28a (+) with selected EPSPS variants (wild-type, TIPS, TIPS P126S, TIPS K296R, TIPS P126S/K296R). A single colony of an E. coli BL21 (DE3) strain harboring one of the constructed plasmids was inoculated into 2 mL of Luria Bertani broth (LB) medium with 50 μg/mL kanamycin and grown overnight at 37° C./225 rpm. The overnight-grown culture (using 100 μl) was scaled up with 2000-fold dilution in a 500-mL triple baffled shake flask and grown to a cell density of 0.8 (optical density [OD600]) at 37° C./225 rpm. Protein expression was induced by adding 0.2 mM of isopropyl β-D-1-thiogalactopyranoside (IPTG) and cells were cultured for 24 hours at 20° C./225 rpm. The induced cell culture was harvested by centrifugation at 4,000 g and 4° C. for 20 mins. Cell pellets were then resuspended in 25 mL of Dulbecco's Phosphate Buffered Saline (DPBS) (Thermo Fisher Scientific, Waltham, MA) pH 7.0 buffer containing 10 mM imidazole, 1 g/L of lysozyme and 5 μl of Pierce™ Universal Nuclease (Thermo Fisher Scientific, Waltham, MA), followed by mixing on a rocker for 30 mins at 4° C. Subsequently, cells were lysed by sonication and the resulting cell lysate was centrifuged at 14,000 g and 4° C. for 20 minutes to obtain the supernatant that contains soluble proteins. Target proteins from the supernatant was purified by HisPur™ Ni-NTA Resin (Thermo Fisher Scientific, Waltham, MA) according to the manufacturer's instruction.
The eluate was dialyzed with 3C protease added to the dialysis cassette, into the appropriate buffer followed by size-exclusion fast protein liquid chromatography. All EPSP synthase variants were stored in 20 mM Tris (pH 7.5), 100 mM NaCl and 10 mM β-mercaptoethanol. The protein concentration was then determined by using the Coomassie Plus Bradford Assay kit (Thermo Fisher Scientific) and the Infinite M200 PRO microplate reader (Tecan, Männedorf, Switzerland) to measure the absorbance of assay mixtures. The presence and purity of the purified proteins were assessed by sodium dodecyl sulfate-polyacrylamide gel electrophoresis.
Enzymatic activity, including inhibitory constant Ki, for EPSPS and TIPS closely corroborate values determined by previous reports. Mutations P126S and K296R have beneficial effects on their own to both Km and kcat and are additive when combined, similar to the observations of the in vivo growth characterization. Furthermore, the high Ki is maintained for each of the variants, showing similar or slightly higher values of around 800 μM compared to the starting point, TIPS. These findings confirm the phenotype endowed by the dual-trait selection pressure employed during the directed evolution campaigns. Kinetic parameters of maize EPSPS with mutations discovered through directed evolution. In Table 4, initial velocity data were measured in triplicate and fit to the Michaelis-Menten equation. […]

[2] = PEP at saturation (roughly 10 times its Km), read-out: Km (S3P)
[3] = S3P at saturation (roughly 10 times its Km), read-out: Km (PEP)

Row | Molecule | growth in yeast minimal media without glyphosate [1] | growth in glyphosate ([1]; 0.5 mM glyphosate, Core1p promoter) | order of glyphosate tolerance ([1]; 5 mM glyphosate, FIG. 1 Panel C) | Km (maize EPSPS; [2]) [µM] | Km (maize EPSPS; [3]) [µM] | Ki (maize EPSPS) [µM] | growth across glyphosate levels ([1]; 0.05 mM to 5 mM glyphosate) | enzymatic efficiency relative to TIPS (maize EPSPS; higher than evolutionary starting point TIPS)
1 | TIPS: Zea mays EPSPS double mutant T102I and P106S, SEQ ID NO:9; positive control (protein, Zea mays, positive control) AGAEEIVLQPIKEISGTVKLPGSKSLSNRILLLAALSEGTTVVDNLLNSEDVHYMLGALRTLGLSVEADKAAKRAVVVGCGGKFPVEDSKEEVQLFLGNAGIAMRSLTAAVTAAGGNATYVLDGVPRMRERPIGDLVVGLKQLGADVDCFLGTDCPPVRVNGIGGLPGGKVKLSGSISSQYLSALLMAAPLALGDVEIEIIDKLISIPYVEMTLRLMERFGVKAEHSDSWDRFYIKGGQKYKSPKNAYVEGDASSASYFLAGAAITGGTVTVEGCGTTSLQGDVKFAEVLEMMGAKVTWTETSVTVTGPPREPFGRKHLKAIDVNMNKMPDVAMTLAVVALFADGPTAIRDVASWRVKETERMVAIRTELTKLGASVEEGPDYCIITPPEKLNVTAIDTYDDHRMAMAFSLAACAEVPVAIRDPGCTRKTFPDYFDVLSTFVKN | grew at a significant deficit | grew well in the presence of glyphosate | P106S<T102I<TIPS | 33.2 | 26.2 | 739 | – | –
2 | TIPS-P126S-K296R: maize EPSPS variant, probably SEQ ID NO:11 (protein, Zea mays) AGAEEIVLQPIKEISGTVKLPGSKSLSNRILLLAALSEGTTVVDNLLNSEDVHYMLGALRTLGLSVEADKAAKRAVVVGCGGKFPVEDSKEEVQLFLGNAGIAMRSLTAAVTAAGGNATYVLDGVSRMRERPIGDLVVGLKQLGADVDCFLGTDCPPVRVNGIGGLPGGKVKLSGSISSQYLSALLMAAPLALGDVEIEIIDKLISIPYVEMTLRLMERFGVKAEHSDSWDRFYIKGGQKYKSPKNAYVEGDASSASYFLAGAAITGGTVTVEGCGTTSLQGDVKFAEVLEMMGARVTWTETSVTVTGPPREPFGRKHLKAIDVNMNKMPDVAMTLAVVALFADGPTAIRDVASWRVKETERMVAIRTELTKLGASVEEGPDYCIITPPEKLNVTAIDTYDDHRMAMAFSLAACAEVPVAIRDPGCTRKTFPDYFDVLSTFVKN | performed very similarly to wild-type EPSPS | – | – | 16.8 | 15.5 | 871 | performed extremely well in every condition of glyphosate | roughly 2.5 fold
